Tests used:
[1] = system: AncSZ; assay: phosphorylation enrichment, bacterial display (enrichment ratio); higher = better substrate or ligand; peptides without Tyr show the background
[2] = target: EPHB1 (UniProt P54762); assay: as above
[3] = target: EPHB2 (UniProt P29323); assay: as above
[4] = target: FGFR1 (UniProt P11362); assay: as above
[5] = target: FGFR3 (UniProt P22607); assay: as above
[6] = system: Fer (mouse); assay: as above
[7] = target: Fes (UniProt P07332); assay: as above
[8] = target: Fyn (UniProt P06241); assay: as above
[9] = target: Hck (UniProt P08631); assay: as above
[10] = target: Jak2 (UniProt O60674); assay: as above
[11] = target: MERTK (UniProt Q12866); assay: as above
[12] = system: c-Abl (mouse); assay: as above
[13] = system: c-Src; assay: as above
[14] = target: Grb2 SH2 (UniProt P62993); assay: SH2 binding enrichment of the phosphorylated peptide, bacterial display (enrichment ratio); higher = better substrate or ligand; peptides without Tyr show the background
[15] = target: SHP2-C SH2; assay: as above
[16] = target: c-Src SH2; assay: as above
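For SH2 binding enrichment of the phosphorylated peptide, bacterial display in this document: peptide library displayed on the E. coli surface as eCPX fusions, selected cells deep-sequenced, score is each peptide's frequency after selection divided by its frequency in the input.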
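For phosphorylation enrichment, bacterial display in this document: 11-residue human phosphosite peptides and single-mutation variants displayed on the E. coli surface, counted by deep sequencing, each peptide's frequency after selection divided by its frequency in the unselected input library; frequency after pTyr selection over input frequency; kinase dosed for 20-30% of maximal phosphorylation in three min.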

Chain of Grb2 SH2 (P62993 whole entry, looked up): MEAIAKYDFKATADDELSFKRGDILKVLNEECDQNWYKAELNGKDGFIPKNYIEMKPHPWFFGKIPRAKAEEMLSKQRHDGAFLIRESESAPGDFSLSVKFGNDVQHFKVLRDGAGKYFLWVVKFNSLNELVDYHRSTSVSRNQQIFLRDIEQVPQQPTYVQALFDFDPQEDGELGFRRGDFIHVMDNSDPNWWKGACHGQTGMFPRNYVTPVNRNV
Chain of Fes (P07332 whole entry, looked up): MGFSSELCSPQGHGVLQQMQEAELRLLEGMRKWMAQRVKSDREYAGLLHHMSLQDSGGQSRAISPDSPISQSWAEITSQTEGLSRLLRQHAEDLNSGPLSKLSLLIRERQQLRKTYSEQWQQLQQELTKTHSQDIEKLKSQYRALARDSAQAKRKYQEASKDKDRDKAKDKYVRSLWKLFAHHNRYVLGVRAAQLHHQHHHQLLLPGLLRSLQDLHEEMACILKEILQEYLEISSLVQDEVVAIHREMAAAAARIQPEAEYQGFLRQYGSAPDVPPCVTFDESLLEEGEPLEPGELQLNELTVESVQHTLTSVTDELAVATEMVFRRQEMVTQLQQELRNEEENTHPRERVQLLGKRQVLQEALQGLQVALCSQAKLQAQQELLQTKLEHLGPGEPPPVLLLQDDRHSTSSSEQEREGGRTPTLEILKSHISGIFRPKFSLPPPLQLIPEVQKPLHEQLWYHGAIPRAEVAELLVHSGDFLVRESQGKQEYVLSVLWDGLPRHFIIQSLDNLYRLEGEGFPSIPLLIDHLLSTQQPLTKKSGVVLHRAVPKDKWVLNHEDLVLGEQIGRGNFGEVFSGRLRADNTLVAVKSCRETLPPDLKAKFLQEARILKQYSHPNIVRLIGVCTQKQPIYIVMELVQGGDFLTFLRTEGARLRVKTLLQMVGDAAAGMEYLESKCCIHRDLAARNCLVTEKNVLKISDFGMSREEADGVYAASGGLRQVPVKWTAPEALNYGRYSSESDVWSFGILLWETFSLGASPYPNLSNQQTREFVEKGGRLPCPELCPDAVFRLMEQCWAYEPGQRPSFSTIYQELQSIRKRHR
Chain of EPHB1 (P54762 whole entry, looked up): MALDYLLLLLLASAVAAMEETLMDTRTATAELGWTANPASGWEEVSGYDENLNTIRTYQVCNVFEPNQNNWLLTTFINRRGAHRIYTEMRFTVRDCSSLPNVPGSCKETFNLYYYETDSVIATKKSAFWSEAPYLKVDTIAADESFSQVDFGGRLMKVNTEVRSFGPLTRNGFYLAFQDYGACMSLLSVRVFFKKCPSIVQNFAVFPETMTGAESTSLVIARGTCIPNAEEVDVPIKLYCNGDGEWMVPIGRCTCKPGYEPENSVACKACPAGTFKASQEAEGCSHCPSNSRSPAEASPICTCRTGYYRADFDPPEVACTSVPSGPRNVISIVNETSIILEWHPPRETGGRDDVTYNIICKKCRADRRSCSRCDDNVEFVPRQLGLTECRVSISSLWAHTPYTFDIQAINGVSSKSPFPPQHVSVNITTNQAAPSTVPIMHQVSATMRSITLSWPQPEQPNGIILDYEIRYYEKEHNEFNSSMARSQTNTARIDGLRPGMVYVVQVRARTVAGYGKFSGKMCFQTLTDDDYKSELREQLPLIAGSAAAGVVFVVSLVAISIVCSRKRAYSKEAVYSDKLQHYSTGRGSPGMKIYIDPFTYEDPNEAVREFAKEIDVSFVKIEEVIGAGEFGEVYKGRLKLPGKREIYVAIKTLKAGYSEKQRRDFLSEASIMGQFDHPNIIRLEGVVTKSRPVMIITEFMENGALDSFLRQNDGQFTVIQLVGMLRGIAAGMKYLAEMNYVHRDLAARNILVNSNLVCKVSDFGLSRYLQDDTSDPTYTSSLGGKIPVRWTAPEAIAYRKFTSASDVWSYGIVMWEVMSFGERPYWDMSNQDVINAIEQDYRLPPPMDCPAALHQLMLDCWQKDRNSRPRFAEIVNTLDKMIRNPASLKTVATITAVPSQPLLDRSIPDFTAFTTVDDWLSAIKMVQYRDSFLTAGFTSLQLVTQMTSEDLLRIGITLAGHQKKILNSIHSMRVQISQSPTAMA
Chain of EPHB2 (P29323 whole entry, looked up): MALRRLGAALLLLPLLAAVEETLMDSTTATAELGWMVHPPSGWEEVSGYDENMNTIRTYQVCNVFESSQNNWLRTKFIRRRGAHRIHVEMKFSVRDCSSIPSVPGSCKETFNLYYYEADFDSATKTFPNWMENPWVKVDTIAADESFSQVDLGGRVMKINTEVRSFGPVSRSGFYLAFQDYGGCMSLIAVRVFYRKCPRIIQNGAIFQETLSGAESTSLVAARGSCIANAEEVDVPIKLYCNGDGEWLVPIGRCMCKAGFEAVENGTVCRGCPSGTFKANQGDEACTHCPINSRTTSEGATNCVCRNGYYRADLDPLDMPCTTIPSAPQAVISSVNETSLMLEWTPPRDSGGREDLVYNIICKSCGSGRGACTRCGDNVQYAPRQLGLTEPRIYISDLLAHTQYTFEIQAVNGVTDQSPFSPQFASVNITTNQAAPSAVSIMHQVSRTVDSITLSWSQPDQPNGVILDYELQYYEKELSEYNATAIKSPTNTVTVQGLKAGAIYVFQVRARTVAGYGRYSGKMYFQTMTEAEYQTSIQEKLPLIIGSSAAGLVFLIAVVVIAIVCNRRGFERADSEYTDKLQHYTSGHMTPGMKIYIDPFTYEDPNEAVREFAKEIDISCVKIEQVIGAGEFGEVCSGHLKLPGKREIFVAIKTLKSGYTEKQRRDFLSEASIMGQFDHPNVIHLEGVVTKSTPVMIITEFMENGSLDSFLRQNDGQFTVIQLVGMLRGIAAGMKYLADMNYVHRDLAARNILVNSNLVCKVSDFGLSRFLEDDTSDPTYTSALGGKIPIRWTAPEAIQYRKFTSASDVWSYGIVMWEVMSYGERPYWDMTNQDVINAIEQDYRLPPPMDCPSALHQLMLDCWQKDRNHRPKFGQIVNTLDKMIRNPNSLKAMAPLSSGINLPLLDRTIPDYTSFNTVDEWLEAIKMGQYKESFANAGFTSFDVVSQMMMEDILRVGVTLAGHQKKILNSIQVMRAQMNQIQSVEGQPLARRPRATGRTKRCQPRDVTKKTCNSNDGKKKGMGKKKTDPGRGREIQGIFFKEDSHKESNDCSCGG
Chain of FGFR3 (P22607 whole entry, looked up): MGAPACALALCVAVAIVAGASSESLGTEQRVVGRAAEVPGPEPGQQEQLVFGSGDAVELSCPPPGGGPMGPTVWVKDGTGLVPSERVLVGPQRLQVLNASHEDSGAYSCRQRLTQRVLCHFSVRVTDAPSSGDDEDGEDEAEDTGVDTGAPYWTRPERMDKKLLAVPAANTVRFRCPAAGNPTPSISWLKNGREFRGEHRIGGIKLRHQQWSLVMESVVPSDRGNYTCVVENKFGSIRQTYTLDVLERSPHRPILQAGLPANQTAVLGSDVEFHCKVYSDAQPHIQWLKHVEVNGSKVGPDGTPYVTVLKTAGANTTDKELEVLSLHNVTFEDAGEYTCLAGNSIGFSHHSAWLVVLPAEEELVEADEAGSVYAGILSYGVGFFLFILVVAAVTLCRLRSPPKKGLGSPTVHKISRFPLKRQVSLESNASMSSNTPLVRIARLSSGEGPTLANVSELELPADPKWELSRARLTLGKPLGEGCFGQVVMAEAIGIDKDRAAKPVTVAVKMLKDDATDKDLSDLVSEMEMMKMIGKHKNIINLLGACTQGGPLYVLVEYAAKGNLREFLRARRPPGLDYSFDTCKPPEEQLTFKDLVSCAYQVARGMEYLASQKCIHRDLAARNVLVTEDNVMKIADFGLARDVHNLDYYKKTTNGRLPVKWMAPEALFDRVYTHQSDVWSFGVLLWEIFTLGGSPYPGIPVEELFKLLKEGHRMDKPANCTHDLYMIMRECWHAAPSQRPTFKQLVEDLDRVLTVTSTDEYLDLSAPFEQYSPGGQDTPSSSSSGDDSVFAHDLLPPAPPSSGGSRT
Chain of Fyn (P06241 whole entry, looked up): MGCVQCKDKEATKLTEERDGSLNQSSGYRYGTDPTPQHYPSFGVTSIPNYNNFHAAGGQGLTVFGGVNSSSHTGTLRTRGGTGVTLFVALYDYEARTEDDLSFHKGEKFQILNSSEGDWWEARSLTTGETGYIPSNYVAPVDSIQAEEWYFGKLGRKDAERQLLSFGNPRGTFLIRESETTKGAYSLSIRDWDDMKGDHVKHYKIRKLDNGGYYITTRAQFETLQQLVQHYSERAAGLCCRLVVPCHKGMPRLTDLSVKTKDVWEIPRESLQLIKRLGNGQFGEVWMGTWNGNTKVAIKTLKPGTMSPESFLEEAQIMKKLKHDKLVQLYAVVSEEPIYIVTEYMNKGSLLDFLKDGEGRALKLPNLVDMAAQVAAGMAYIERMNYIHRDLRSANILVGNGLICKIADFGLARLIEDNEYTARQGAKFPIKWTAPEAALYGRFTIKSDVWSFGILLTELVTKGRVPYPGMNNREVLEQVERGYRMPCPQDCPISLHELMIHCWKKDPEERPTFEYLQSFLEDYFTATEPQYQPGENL
Chain of Hck (P08631 whole entry, looked up): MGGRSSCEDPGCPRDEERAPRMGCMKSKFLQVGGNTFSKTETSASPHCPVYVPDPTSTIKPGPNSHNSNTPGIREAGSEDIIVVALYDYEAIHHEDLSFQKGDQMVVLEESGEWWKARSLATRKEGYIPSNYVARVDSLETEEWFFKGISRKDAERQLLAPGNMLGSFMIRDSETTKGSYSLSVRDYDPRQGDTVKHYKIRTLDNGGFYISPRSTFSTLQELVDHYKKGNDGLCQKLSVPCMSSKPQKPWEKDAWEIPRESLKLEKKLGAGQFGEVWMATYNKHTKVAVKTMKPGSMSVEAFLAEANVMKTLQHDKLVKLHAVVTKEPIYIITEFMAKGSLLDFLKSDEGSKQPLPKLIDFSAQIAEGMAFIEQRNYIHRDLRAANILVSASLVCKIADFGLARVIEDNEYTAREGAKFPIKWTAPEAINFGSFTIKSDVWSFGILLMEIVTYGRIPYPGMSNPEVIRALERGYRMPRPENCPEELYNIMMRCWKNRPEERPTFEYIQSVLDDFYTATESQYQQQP

Sequence	phosphorylation enrichment [1]	phosphorylation enrichment [2]	phosphorylation enrichment [3]	phosphorylation enrichment [4]	phosphorylation enrichment [5]	phosphorylation enrichment [6]	phosphorylation enrichment [7]	phosphorylation enrichment [8]	phosphorylation enrichment [9]	phosphorylation enrichment [10]	phosphorylation enrichment [11]	phosphorylation enrichment [12]	phosphorylation enrichment [13]	SH2 binding enrichment [14]	SH2 binding enrichment [15]	SH2 binding enrichment [16]
SNTFLYQLVFD [EXO1_Y284_N279S]	1.56	5.47	3.93	1.69	1.9	4.62	1.49	1.61	2.63	1.36	5.86	0.784	2.22	1.17	1.05	0.833
SPLEVYVDKSQ [FLNA_Y373_F370L]	1.2	0.653	0.716	0.631	0.74	0.521	1.25	0.469	0.523	1.14	0.47	0.723	0.508	0.859	0.585	0.477
SPPILYSFFLD [FCRL6_Y239_YF]	1.19	2.85	1.97	1.4	1.38	1.84	1.14	2.28	2.08	1.18	9.91	0.901	3.23	1.21	1.01	0.74
SQAPGYSYTAA [CYCS_Y47_G42S]	0.637	0.466	0.408	0.593	0.43	0.499	0.666	0.454	0.422	0.765	0.45	0.708	0.594	0.763	0.631	1.07
SQQTFYRVSNM [ABCD1_Y181_YF]	0.564	0.31	0.507	0.433	0.575	0.39	0.741	0.409	0.513	0.546	0.388	0.492	0.408	0.82	0.762	0.525
SRGLAYPARSA [LEMD2_Y122_P126S]	0.501	0.244	0.334	0.288	0.275	0.381	0.529	0.316	0.25	0.312	0.35	0.382	0.431	0.723	0.596	0.552
SRKSEYLLPVA [MYLK_Y611]	0.748	0.504	0.512	0.392	0.569	0.44	0.602	0.619	0.465	0.509	0.413	0.93	0.526	0.789	0.786	0.418
SRPTQYSSFAC [SPEM2_Y104_S108A]	0.66	0.362	0.494	0.482	0.533	0.435	0.727	0.563	0.511	0.733	0.519	0.736	0.665	0.984	2.18	0.825
SSAETYSRMCL [NBEAL2_Y1835_R1839C]	0.84	0.649	0.616	0.426	0.669	1.01	0.851	0.526	0.859	0.695	0.561	0.849	0.708	0.73	0.486	0.545
SSDPDYLAAVD [GLB1_Y154]	1.34	0.693	0.74	0.56	0.885	0.604	1.27	0.656	0.631	1.12	0.487	0.814	0.55	1.02	0.742	0.482
SSEILYHIIKG [CDH17_Y489_K486E]	1.38	0.806	0.684	10.9	8.65	1.08	0.875	2.85	5.02	1.69	8.04	10.4	4.11	1.2	1.18	2.4
SSGSRYQPLAS [NCAPD2_Y1325_T1321S]	0.529	0.366	0.431	0.468	0.433	0.392	0.558	0.384	0.442	0.531	0.43	0.488	0.453	0.977	0.843	0.583
SSQVLYKLEQS [THADA_Y701]	0.628	0.476	0.592	0.434	0.507	0.431	0.726	0.48	0.487	0.731	0.442	0.496	0.706	0.893	0.678	0.527
STEVIYLPRRK [STK11_Y36_Q37L]	0.624	0.419	0.588	0.52	0.53	0.526	0.589	0.7	0.515	0.568	0.618	0.466	0.591	0.546	0.586	0.336
SVKVFYKKCWF [EPHA7_Y202_S207F_YF]	1.06	0.782	0.518	0.533	0.833	0.544	1.23	0.568	0.513	1.01	0.425	0.816	0.478	0.764	0.765	0.441
SVMAEYGLYGA [VSX2_Y219]	0.709	0.732	1.53	0.529	0.57	3.74	0.882	6.65	6.45	0.59	0.502	0.628	4.66	0.908	0.609	0.593
SVMAEYGLYRA [VSX2_Y219_G223R]	0.951	0.701	1.28	0.537	0.578	0.512	0.862	7.16	6.46	0.569	0.552	0.945	6.41	0.734	0.702	0.447

Sequence	phosphorylation enrichment [1]	phosphorylation enrichment [2]	phosphorylation enrichment [3]	phosphorylation enrichment [4]	phosphorylation enrichment [5]	phosphorylation enrichment [6]	phosphorylation enrichment [7]	phosphorylation enrichment [8]	phosphorylation enrichment [9]	phosphorylation enrichment [10]	phosphorylation enrichment [11]	phosphorylation enrichment [12]	phosphorylation enrichment [13]	SH2 binding enrichment [14]	SH2 binding enrichment [15]	SH2 binding enrichment [16]
SVTCKYSPALN [TP53_Y126_T125K]	0.638	0.431	0.457	0.429	0.515	0.392	0.795	0.344	0.431	0.629	0.386	0.458	0.454	0.752	0.654	0.363
SVTCRYSPALN [TP53_Y126_T125R]	0.864	0.508	0.446	0.413	0.561	0.437	0.938	0.397	0.392	0.805	0.514	0.611	0.427	0.663	0.539	0.366
SVTRTYSPALN [TP53_Y126_C124R]	0.445	0.313	0.378	0.394	0.418	0.485	0.522	0.384	0.345	0.429	0.313	0.427	0.399	0.961	0.579	0.424
SVVEPYEPPEV [TP53_Y220_V218E]	1.29	0.541	0.533	0.521	0.654	0.462	1.1	0.741	0.472	0.985	0.442	0.601	0.4	1.13	0.726	0.608
SVVGPYEPPEV [TP53_Y220_V218G]	1.14	0.579	0.526	0.432	0.69	0.498	1.05	0.403	0.505	0.855	0.409	0.728	0.441	0.935	0.618	0.523
SVVVPYEPPEA [TP53_Y220_V225A]	1.28	0.61	0.536	0.496	0.738	0.593	1.19	0.483	0.54	1.1	0.54	0.859	0.574	0.967	0.675	0.795
SVVVPYEPPVV [TP53_Y220_E224V]	1	0.518	0.574	0.446	0.61	0.457	0.921	0.453	0.437	0.731	0.397	0.659	0.437	0.709	0.627	0.606
SVVVPYEQPEV [TP53_Y220_P222Q]	1.37	0.652	0.715	0.604	0.774	0.568	1.28	0.532	0.612	1.24	0.544	1.03	0.69	0.962	0.856	3.08
TAVNGYAFGGG [ECHS1_Y137_A132T]	0.558	0.417	0.531	0.404	0.922	0.62	0.723	0.593	0.419	0.737	0.462	0.592	0.561	0.683	0.093	0.399
TCFDKYTGNTY [FN1_Y101]	1.3	0.519	0.63	0.463	0.648	0.534	1.16	0.511	0.516	1.01	0.345	0.717	0.584	0.924	0.754	0.472
TEFIQYVRRKN [MAX_Y73_M74V_YF]	0.66	0.48	0.551	0.74	0.653	0.483	0.626	0.675	0.559	0.521	0.639	0.435	0.473	0.863	0.609	0.492
TEHMAYCPIQC [SHC4_Y403_Q400H]	0.72	0.489	0.524	0.458	0.638	0.557	0.821	0.466	0.805	0.778	0.416	0.661	0.764	0.821	0.685	1.2
TEQDPYNNIVC [MMUT_Y364_R369C]	1.14	0.555	0.572	0.659	0.666	0.627	1.22	0.555	0.566	0.952	0.528	0.784	0.642	0.86	0.814	1.52
TESNNYIFTTL [FAM83B_Y637_K640T_YF]	1.12	0.687	0.641	1.02	0.912	0.722	1.27	0.539	0.571	1.11	0.612	0.982	0.537	0.922	0.821	0.502
TFACSYTPVKA [FLNB_Y708_YF]	1.16	0.527	0.577	0.582	0.653	0.449	1.08	0.444	0.562	1.09	0.342	0.961	0.536	0.481	1.39	0.587
TFGVVYRAKDK [CDK11B_Y453_YF]	0.831	0.428	0.592	0.333	0.506	0.372	0.798	0.563	0.481	0.703	0.396	0.584	0.513	0.808	0.64	0.426

From the supplement of paper PMC10065799, “High-throughput profiling of sequence recognition by tyrosine kinases and SH2 domains using bacterial peptide display” (eLife, 2023)
